The source of these data is patent publication EP4368203A1 (Wuhan Neurophth Biotechnology Limited Company, dated 2024).

The experiment concerns the target T1, rat VEGF (in rat serum) (rat, UniProt P16612-2 27-190, limits assumed).
T1 construct: also called VEGF in rat serum samples
T1 sequence (looked up): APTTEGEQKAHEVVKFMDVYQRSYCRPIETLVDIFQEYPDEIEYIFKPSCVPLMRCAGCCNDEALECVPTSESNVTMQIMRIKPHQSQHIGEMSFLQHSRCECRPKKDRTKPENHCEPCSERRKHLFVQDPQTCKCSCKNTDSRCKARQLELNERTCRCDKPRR
Nature of the experiment: Western blot, cell supernatant as primary antibody. (In general: Immunoblotting shows a protein as a band on a membrane.)

B1: anti-VEGF Fab expressed by the MDR6 plasmid (culture supernatant of transfected cells) (Fab, V domains shown)
VH: EVQLVESGGGLVQPGGSLRLSCAASGYDFTHYGMNWVRQAPGKGLEWVGWINTYTGEPTYAADFKRRFTFSLDTSKSTAYLQMNSLRAEDTAVYYCAKYPYYYGTSHWYFDVWGQGTLVTVSS
VL: DIQLTQSPSSLSASVGDRVTITCSASQDISNYLNWYQQKPGKAPKVLIYFTSSLHSGVPSRFSGSGSGTDFTLTISSLQPEDFATYYCQQYSTVPWTFGQGTKVEIKR
notes: also called M6
In the case of B1, the binding result is reported as “no binding (tested: 5 ug of rat serum)”.
